The values that follow are results of earlier work, collected in article PMC6989705 (EJNMMI Radiopharmacy and Chemistry, 2020).

The conditions of this data set: endogenous ligand; ref Rai et al. [2015]; cited from earlier work. The method, then: Somatostatin receptors (SSTRs) are validated biomarkers in the management of NETs. The short biological half-life of the endogenous ligand somatostatin (< 5 min) prevents pharmacological use of this peptide (Rai et al. [2015]). Therefore, synthetic somatostatin analogs that are more resistant to peptidases, such as octreotide, were developed. Using radiolabeled somatostatin analogs, the presence of SSTRs on tumor cells may be exploited for molecular imaging and targeted radionuclide therapy (TRNT) for the treatment of unresectable neuroendocrine tumors (Pauwels et al. [2018]; Deroose et al. [2 ...

A value given as a limit tells only on which side of the number the result lay.

Consider somatostatin, for which the biological half-life is less than 5 min.
